Assay: Perhydrolase activity remaining bound to hair, ABTS assay
Type: binding, human
Procedure: Ten mg of human hair was submerged in 2 mL of a binding solution containing 50 μg/mL of the Thermotoga maritima perhydrolase targeted to hair via the hair binding peptide HC263 (C277S-HC263; SEQ ID NO: 288; also referred to herein as “HC1121”) in 50 mM pH 7.2 potassium phosphate buffer containing 5% of the test surfactant. The test surfactants were two nonionic surfactants: TWEEN®-20 (Sigma, St Louis, Mo.), and TRITON®-X 100 (Aldrich, St Louis, Mo.), and two ionic surfactants: CHEMBETAINE™ CAD (Cocamidopropyl betaine; Lubrizol, Wickliffe, Ohio) and RHODAPEX® ES-2K (sodium laurel ether sulfate; Rhodia Novecare, Cranbury, N.J.).
Hair was incubated in the binding solution at room temperature (˜22° C.) with gentle agitation for 30 minutes, at which time the solution was removed by aspiration and the hair rinsed with 1% TWEEN®-20 in 50 mM pH 7.2 potassium phosphate buffer. The hair was removed from the tube, blotted dry with paper towel, and transferred to a new set of tubes. The hair was rinsed once with 1% TWEEN®-20 in 50 mM pH 7.2 potassium phosphate buffer and then rinsed three times with 50 mM pH 7.2 potassium phosphate buffer. Perhydrolase activity remaining bound to the hair was determined by the ABTS assay.
The ABTS assay was performed as follows: hair samples treated as described above were transferred to new 2-mL microcentrifuge tubes (Eppendorf Protein LoBind; Eppendorf North America, Hauppauge, N.Y.) To each tube was added 480 μL of PAH buffer (50 mM potassium phosphate, pH 7.2), 14 μL of 39% hydrogen peroxide (Sigma 3410), and 6 μL triacetin (Sigma-Aldrich W200700). The perhydrolase reaction was allowed to proceed for 10 minutes at room temperature (˜22-25° C.). The reaction was stopped by diluting aliquots 10×, 100× and 1000× with 10 mM phosphoric acid. For detection 50 μL of 1 M acetic acid, 50 μL of 40 mg/mL potassium iodide, and 50 μL of 4 mM ABTS (2,2′-azino-bis(3-ethylbenzthiazoline-6-sulphonic acid; Sigma, St Louis, Mo.) were added to 50 μL of the above dilutions. Color was allowed to develop for 10 minutes and read in a spectrophotometer at 405 nm. Values from no-enzyme controls were subtracted to yield values attributable only to enzyme activity. A standard curve of OD 405 nm vs PAA concentration in ppm yielded a conversion factor of 8.75, such that an OD 405 nm of 1.0 corresponded to approximately 8.75 ppm PAA. This value was then multiplied by the appropriate dilution to arrive at the PAA concentration in the perhydrolase reaction.
The Thermotoga maritima perhydrolase targeted to hair via the hair binding peptide HC263 (C277S-HC263; SEQ ID NO: 288) was diluted to 50 μg/mL in a solution of 5% PEG-80 sorbitan laurate in 100 mM citrate-phosphate buffer adjusted to pH 4.9, pH 5.5, pH 6.0, or pH 7.0. Ten mg of human hair was added to 2 mL of the above formulations and incubated with gentle agitation for 5 minutes at room temperature to allow enzyme binding to hair. A no-enzyme control sample was included with each pH. After binding, the binding solution was removed by aspiration and the hair was washed with 2 mL of 1% TWEEN®-20 in 50 mM pH 7.2 potassium phosphate buffer. The hair was removed from the tube, blotted dry with paper towel, and transferred to a new set of tubes. The hair was rinsed once with 1% TWEEN®-20 in 50 mM pH 7.2 potassium phosphate buffer and then rinsed three time with 50 mM pH 7.2 potassium phosphate buffer. Perhydrolase activity remaining bound to the hair was determined by the ABTS assay. The results are given as ppm PAA produced at 10 minutes (after subtraction of the no-enzyme control values)
The Thermotoga maritima perhydrolase targeted to hair via the hair binding peptide HC263 (C277S-HC263; SEQ ID NO: 288) was diluted to 50 μg/mL in a solution of 5% PEG-80 sorbitan laurate in 100 mM citrate-phosphate buffer adjusted to pH 6.0. […]

[1] = 50 μg/mL, pH 6.0, binding 1 min, at 10 minutes

B1: SEQ ID NO: 323: S54V variant of the aryl esterase from Mycobacterium smegmatis fused to hair binding domain HC263 via a flexible linker (protein)
chain: MAKRILCFGDSLTWGWVPVEDGAPTERFAPDVRWTGVLAQQLGADFEVIEEGLVARTTNIDDPTDPRLNGASYLPSCLATHLPLDLVIIMLGTNDTKAYFRRTPLDIALGMSVLVTQVLTSAGGVGTTYPAPKVLVVSPPPLAPMPHPWFQLIFEGGEQKTTELARVYSALASFMKVPFFDAGSVISTDGVDGIHFTEANNRDLGVALAEQVRSLLGPGSGGAGSPGSAGGPGSPSAQSQLPDKHSGLHERAPQRYGPEPEPEPEPIPEPPKEAPVVIEKPKPKPKPKPKPPAHDHKNQKETHQRHAAGSGGGGSPHHHHHH
For B1, which “ppm PAA” value (50 μg/mL, binding 1 min, hair with no PAA treatment) is on record?
Its value is 269 ppm.

What about the “ppm PAA” value (50 μg/mL, binding 1 min, hair with one PAA treatment (0.2% PAA, 1 hr)) of the same molecule?
The value was 526 ppm.

And the “ppm PAA” value (50 μg/mL, binding 1 min, hair with two PAA treatments)?
The value was 702 ppm.

What about the “OD 405nm” value [1] of the same molecule?
Its value is 0.237.

What about the Peracetic acid [1] of the same molecule?
The Peracetic acid was 207 ppm.

B2: C277S-HC263: C277S variant of Thermotoga maritima perhydrolase fused via a flexible linker to hair-binding domain HC263 (protein)
chain: MAFFDLPLEELKKYRPERYEEKDFDEFWEETLAESEKFPLDPVFERMESHLKTVEAYDVTFSGYRGQRIKGWLLVPKLEEEKLPCVVQYIGYNGGRGFPHDWLFWPSMGYICFVMDTRGQGSGWLKGDTPDYPEGPVDPQYPGFMTRGILDPRTYYYRRVFTDAVRAVEAAASFPQVDQERIVIAGGSQGGGIALAVSALSKKAKALLCDVPFLCHFRRAVQLVDTHPYAEITNFLKTHRDKEEIVFRTLSYFDGVNFAARAKIPALFSVGLMDNISPPSTVFAAYNYYAGPKEIRIYPYNNHEGGGSFQAVEQVKFLKKLFEKGGPGSGGAGSPGSAGGPGSPSAQSQLPDKHSGLHERAPQRYGPEPEPEPEPIPEPPKEAPVVIEKPKPKPKPKPKPPAHDHKNQKETHQRHAAGSGGGGSPHHHHHH
Which results are given for B2?
Perhydrolase Activity Retained on Hair, ppm PAA (50 μg/mL enzyme bound 30 min in 5% CHEMBETAINE™ CAD): 455 ppm; Perhydrolase Activity Retained on Hair, ppm PAA (50 μg/mL enzyme bound 30 min in 5% RHODAPEX® ES-2K): 315 ppm; Perhydrolase Activity Retained on Hair, ppm PAA (50 μg/mL enzyme bound 30 min in 5% TRITON®-X 100): 1540 ppm; Perhydrolase Activity Retained on Hair, ppm PAA (50 μg/mL enzyme bound 30 min in 5% TWEEN®-20): 2126 ppm; ppm PAA (50 μg/mL, 5% PEG-80 sorbitan laurate pH 6.0, binding 10 min, PAA at 10 minutes): 581 ppm; Perhydrolase Activity Deposited on Hair, ppm PAA (50 μg/mL, 5% PEG-80 sorbitan laurate pH 6.0, binding time 0.5 min): 954 ppm; Perhydrolase Activity Deposited on Hair, ppm PAA (50 μg/mL, 5% PEG-80 sorbitan laurate, binding 5 min, pH 4.9): 437 ppm; Perhydrolase Activity Deposited on Hair, ppm PAA (binding 5 min, pH 5.5): 1312 ppm; Perhydrolase Activity Deposited on Hair, ppm PAA (binding 5 min, pH 6.0): 1137 ppm; Perhydrolase Activity Deposited on Hair, ppm PAA (binding 5 min, pH 7.0): 385 ppm; values obtained (ABTS assay) (bound in 5% CHEMBETAINE™ CAD): 0.52; values obtained (ABTS assay) (bound in 5% RHODAPEX® ES-2K): 0.36; values obtained (ABTS assay) (bound in 5% TRITON®-X 100): 1.76; values obtained (ABTS assay) (bound in 5% TWEEN®-20): 2.43; Perhydrolase Activity Deposited on Hair, ppm PAA (pH 6.0, binding time 1 min): 962 ppm; Perhydrolase Activity Deposited on Hair, ppm PAA (pH 6.0, binding time 2 min): 988 ppm; Perhydrolase Activity Deposited on Hair, ppm PAA (pH 6.0, binding time 5 min): 1093 ppm
